{
  "source": "the supplement of paper PMC7125110",
  "parents": {"B1": {"name": "glmS ribozyme (parent)", "chain": "AUAAAAGCGCCAGAACUACAGAAAUGUAGUUGACGAGGAGGAGGUUUAUCGAAUUUUCGGCGGAUGCCUCCAAA"}},
  "note": "± gives the standard error. Fewer inactive variants are shown than the library holds.",
  "data": [
    {"variants_of": "B1", "experiment": "self-cleavage kobs at 10000 uM GlcN6P; higher = faster cleavage; RNA array", "details": "with glucosamine-6-phosphate", "outline": "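Weighted Michaelis–Menten fits across concentrations supplied kcat and KM, based on kobs from one- or two-exponential decay fits to normalised per-tile medians. The data came from barcoded ribozyme variants transcribed in situ by E. coli RNA polymerase on sequenced MiSeq chips and tracked at 37 °C by a hybridised Cy3 probe. Glucosamine-6-phosphate (40 μM to 10 mM) in HEPES/KCl/Mg(OAc)2 buffer was flowed in.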", "units": {"self-cleavage kobs at 10000 uM GlcN6P": "s⁻¹"}, "values": [
      {"variant": "AUAAAAGCGCCAGAACUACAGAAAUGUAGUUGACGACGAGGAGGUUUAUCAAAUUUUCGGCGGAUGCCACCAAA", "note": "[G37C G51A U69A]", "self-cleavage kobs at 10000 uM GlcN6P": "< 1e-05"},
      {"variant": "AUAAAAGCGCCAGAACUACAGAAAUGUAGUUUACGAGGAGGAGGUAUAUCGAAUUGUCGGCGGAUGCCUCCAAA", "note": "[G32U U46A U56G]", "self-cleavage kobs at 10000 uM GlcN6P": "3.85e-05 ± 1.2e-05"},
      {"variant": "AUAAAAGCGCCAGAACUACAGAAAUGUAGUUAACGAGGAGGAGGUUUAUCGAACUCUAGGCGGAUGCCUCCAAA", "note": "[G32A U54C U56C C58A]", "self-cleavage kobs at 10000 uM GlcN6P": "9.78e-05 ± 2.1e-05"},
      {"variant": "AUAAAAGCGCCAGAACUACAGAAAUGUAGUUGACCAGGAGGAGGGUAAUCGAAUUUUCGGCGGACGCCUCCAAA", "note": "[G35C U45G U47A U65C]", "self-cleavage kobs at 10000 uM GlcN6P": "< 1e-05"},
      {"variant": "AUAAAAGCGCCAGAACUACAGAAAUGUAGUUCACGAUGAGGAGCUUUAUCGCAUUUUCGGCGGAUGCCUCCAAA", "note": "[G32C G37U G44C A52C]", "self-cleavage kobs at 10000 uM GlcN6P": "< 1e-05"},
      {"variant": "AUAAAAGCGCCAGAACUACAGAAAUGUAGUUGAUGCGGAGGAGGUUUAUCGAAUUUUCGGCGGAUGCCUCCAAA", "note": "[C34U A36C]", "self-cleavage kobs at 10000 uM GlcN6P": "< 1e-05"},
      {"variant": "AUAAAAGCGCCAGAACUACAGAAAUGUAGUUGACGAAGAGGAGGUUUAUCGAAUUCUCGGCGGAUUCCUCCAAA", "note": "[G37A U56C G66U]", "self-cleavage kobs at 10000 uM GlcN6P": "2.45e-05 ± 1.1e-05"},
      {"variant": "AUAAAAGCGCCAGAACUACAGAAAUGUAGUUGAAGAGGAGGAGGUUUAUCGAAUUUUCGGCGGAUGGCUACAAA", "note": "[C34A C67G C70A]", "self-cleavage kobs at 10000 uM GlcN6P": "< 1e-05"},
      {"variant": "AUAAAAGCGCCAGAACUACAGAAAUGUAGUUGACGAGAUGGAGGUUUAUCGAAAUUUCGGCGGAUGCCUCCAAA", "note": "[G38A A39U U54A]", "self-cleavage kobs at 10000 uM GlcN6P": "< 1e-05"},
      {"variant": "AUAAAAGCGCCAGAACUACAGAAAUGUAGUUGACGAAGAGGAUGUUUAUCGAAUGUUCGGCGGAUGCGUCCAAA", "note": "[G37A G43U U55G C68G]", "self-cleavage kobs at 10000 uM GlcN6P": "0.000281 ± 7.9e-05"},
      {"variant": "AUAAAAGCGCCAGAACUACAGAAAUGUAGUUGACGCGGAGGAGGUUUAUCGAACUUUCGUAUGAUGCCUCCAAA", "note": "[A36C U54C G60U C61A G62U]", "self-cleavage kobs at 10000 uM GlcN6P": "< 1e-05"},
      {"variant": "AUAAAAGCGCCAGAACUACAGAAAUGUAGUUGACGACGAGGAGGUUUAUCGAAUUUUCGGCGUAUGCCUCCAAA", "note": "[G37C G63U]", "self-cleavage kobs at 10000 uM GlcN6P": "< 1e-05"},
      {"variant": "AUAAAAGCGCCAGAACUACAGAAAUGUAGUUGACGAGCUGGAGGUCUAUCGAAUUUUCGGCGGAUGCCUCCAAA", "note": "[G38C A39U U46C]", "self-cleavage kobs at 10000 uM GlcN6P": "< 1e-05"},
      {"variant": "AUAAAAGCGCCAGAACUACAGAAAUGUAGUUGACGACGAGGAGGUUUAUCGAAGUUUCGGCGGAUGCCUCCAAA", "note": "[G37C U54G]", "self-cleavage kobs at 10000 uM GlcN6P": "3.98e-05 ± 8.6e-06"},
      {"variant": "AUAAAAGCGCCAGAACUACAGAAAUGUAGUUGCCGAGGAGGAGGGUUAUCGAAUUUUCGGCGGAUGCCUCCAAA", "note": "[A33C U45G]", "self-cleavage kobs at 10000 uM GlcN6P": "4.71e-05 ± 1e-05"},
      {"variant": "AUAAAAGCGCCAGAACUACAGAAAUGUAGUUGAUGAGGAGGAGGAUUAUAGAAUUUUCGGCGGAUGCCUCCAAA", "note": "[C34U U45A C50A]", "self-cleavage kobs at 10000 uM GlcN6P": "< 1e-05"},
      {"variant": "AUAAAAGCGCCAGAACUACAGAAAUGUAGUUGACGGGGAGGAGGUUUCUCGAAUUUUCGGCGGAUGCAUCCAAA", "note": "[A36G A48C C68A]", "self-cleavage kobs at 10000 uM GlcN6P": "< 1e-05"},
      {"variant": "AUAAAAGCGCCAGAACUACAGAAAUGUAGUUGACGCGGAGGAGGUUGAUCGAAUUUUCGGCGGAGGCCUCCAAA", "note": "[A36C U47G U65G]", "self-cleavage kobs at 10000 uM GlcN6P": "< 1e-05"},
      {"variant": "AUAAAAGCGCCAGAACUACAGAAAUGUAGUUGGCGAGGAGGAGGUUUCUUGAAUUUUCGGCGGAUGCCUGCAAA", "note": "[A33G A48C C50U C70G]", "self-cleavage kobs at 10000 uM GlcN6P": "< 1e-05"},
      {"variant": "AUAAAAGCGCCAGAACUACAGAAAUGUAGUUAACGAGGAGGAGGUUUAUCGAAUUAUCGGCGGAUGGCUCCAAA", "note": "[G32A U56A C67G]", "self-cleavage kobs at 10000 uM GlcN6P": "0.000139 ± 2e-05"},
      {"variant": "AUAAAAGCGCCAGAACUACAGAAAUGUAGUUGACAAGGAGGAGGUUUAUCGAAUUUUCGCGGGCUACCUCCAAA", "note": "[G35A G60C C61G A64C G66A]", "self-cleavage kobs at 10000 uM GlcN6P": "< 1e-05"},
      {"variant": "AUAAAAGCGCCAGAACUACAGAAAUGUAGUUGCCGAGGAGGAUGUUUACCGAAUUUUCGGCGGAUGCUUCCAAA", "note": "[A33C G43U U49C C68U]", "self-cleavage kobs at 10000 uM GlcN6P": "< 1e-05"},
      {"variant": "AUAAAAGCGCCAGAACUACAGAAAUGUAGUUGUCGAGGAGGAGGUUUAUCGAAUUUUGGGCGGAUGUAUCCAAA", "note": "[A33U C58G C67U C68A]", "self-cleavage kobs at 10000 uM GlcN6P": "5.11e-05 ± 1.6e-05"},
      {"variant": "AUAAAAGCGCCAGAACUACAGAAAUGUAGUUUACGAGGAGGAGGUUUAUCGAACUUUCGGCGGAUGCCUACAAA", "note": "[G32U U54C C70A]", "self-cleavage kobs at 10000 uM GlcN6P": "4.27e-05 ± 1.5e-05"},
      {"variant": "AUAAAAGCGCCAGAACUACAGAAAUGUAGUUGACGCGGAGGAGGUGUAGCGAAUUUUCGGCGGAUGCCUCCAAA", "note": "[A36C U46G U49G]", "self-cleavage kobs at 10000 uM GlcN6P": "0.000106 ± 2.7e-05"},
      {"variant": "AUAAAAGCGCCAGAACUACAGAAAUGUAGUUGACGGGGAGGCGGUUUAUCGAAUUUUCUGCGGAUGCCUCCAAA", "note": "[A36G A42C G59U]", "self-cleavage kobs at 10000 uM GlcN6P": "< 1e-05"},
      {"variant": "AUAAAAGCGCCAGAACUACAGAAAUGUAGUUGACCAGGAGGAGGUUAAUCGAAUUUUCGGCGGAUUCCUCCAAA", "note": "[G35C U47A G66U]", "self-cleavage kobs at 10000 uM GlcN6P": "< 1e-05"},
      {"variant": "AUAAAAGCGCCAGAACUACAGAAAUGUAGUUGACUAGGAGGAGGUUUAUCGAUUUAUCGGCGGAUGCCUCCAAA", "note": "[G35U A53U U56A]", "self-cleavage kobs at 10000 uM GlcN6P": "< 1e-05"},
      {"variant": "AUAAAAGCGCCAGAACUACAGAAAUGUAGUUGAAAAGGAUCAGGUGUAUCGAAUUUUCGGCGGAUGCCUCCAAA", "note": "[C34A G35A G40U G41C U46G]", "self-cleavage kobs at 10000 uM GlcN6P": "< 1e-05"},
      {"variant": "AUAAAAGCGCCAGAACUACAGAAAUGUAGUUGACGUGGAGGAGGUUUAUCGAAUUUUCGGCGGAUGCGUCUAAA", "note": "[A36U C68G C71U]", "self-cleavage kobs at 10000 uM GlcN6P": "5.72e-05 ± 2.3e-05"},
      {"variant": "AUAAAAGCGCCAGAACUACAGAAAUGUAGUUGACGGGGAGGAGGUUUGUCGAAUUUUCGGCGGAUGCCUACAAA", "note": "[A36G A48G C70A]", "self-cleavage kobs at 10000 uM GlcN6P": "< 1e-05"},
      {"variant": "AUAAAAGCGCCAGAACUACAGAAAUGUAGUUGUCGAGGAGGAGGUUUAUCGAAUUUCCGGCGGAUGGCACCAAA", "note": "[A33U U57C C67G U69A]", "self-cleavage kobs at 10000 uM GlcN6P": "< 1e-05"},
      {"variant": "AUAAAAGCGCCAGAACUACAGAAAUGUAGUUGACGUGGAGGAGGUUUAGCGAAUUUUCGGCGCAUGCCUCCAAA", "note": "[A36U U49G G63C]", "self-cleavage kobs at 10000 uM GlcN6P": "< 1e-05"},
      {"variant": "AUAAAAGCGCCAGAACUACAGAAAUGUAGUUGUCGAGGAGGAGGUUUAUGGAAUUUUCGGAGGAUGCCUUCAAA", "note": "[A33U C50G C61A C70U]", "self-cleavage kobs at 10000 uM GlcN6P": "6e-05 ± 1.8e-05"},
      {"variant": "AUAAAAGCGCCAGAACUACAGAAAUGUAGUUGAGGAGGAGGAGGUUUAUCGAAUUUUCCGAGGGUGCCUCCAAA", "note": "[C34G G59C C61A A64G]", "self-cleavage kobs at 10000 uM GlcN6P": "< 1e-05"},
      {"variant": "AUAAAAGCGCCAGAACUACAGAAAUGUAGUUGACGAUGAGGAUGUUUAUCGAAUUUUCAGCGGAUGCCUCCAAA", "note": "[G37U G43U G59A]", "self-cleavage kobs at 10000 uM GlcN6P": "< 1e-05"},
      {"variant": "AUAAAAGCGCCAGAACUACAGAAAUGUAGUUGACGAUGAGGAGGUUUAUCGGAUUUUCGGCGGCUGCCUACAAA", "note": "[G37U A52G A64C C70A]", "self-cleavage kobs at 10000 uM GlcN6P": "< 1e-05"}
    ]}
  ]
}
